± gives the standard deviation of the averaged measurements.
System: ATP
Experiment: switch fluorescence ratio, 500 uM ATP over buffer (Cy3 cluster intensity, sum of 5 cycles each) (fold (ratio)); higher = stronger signal-on switching upon ATP binding; sequences stand for … in TCGTCGGCAGCGTCAGATGTGTATAAGAGACAGTTTTTTTTTTTTTTTTTTTTTTTTT…TC
Conditions: aptamer strand: ATP DNA aptamer (quencher-CACCTGGGGGAGTATTGCGGAGGAAGG + anchor), 100 nM annealed; ATP concentration: 500 uM
In short: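 Switching-strand clusters labelled with Cy3 on a modified Illumina MiSeq flow-cell were annealed to 100 nM quencher-labelled ATP aptamer, imaged in selection buffer, and re-imaged after 15 min with 500 uM ATP at 22 °C. This was done over five cycles with NaOH stripping and re-annealing in between. The fluorescence ratio is summed target-cycle over summed buffer-cycle Cy3 intensity per cluster, averaged per switch-domain sequence, excluding clusters outside 100-1000 RFU.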
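Also: ATP exposure 15 min at 22 °C before imaging.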

GAATAAAATG
switch fluorescence ratio: 1.04 ± 0.013

TGTGTTCACT
switch fluorescence ratio: 1.01 ± 0.036

AAGCTTTGTG
switch fluorescence ratio: 0.9786 ± 0.0076

GTTAGTAGCT
switch fluorescence ratio: 0.97 ± 0.013

GATAGCTGGT
switch fluorescence ratio: 0.981 ± 0.025

GGTACGGGGG
switch fluorescence ratio: 1 ± 0.013

ATACAAGGCA
switch fluorescence ratio: 0.956 ± 0.053

TGAACGGATC
switch fluorescence ratio: 1.03 ± 0.008

GGAGACGGGG
switch fluorescence ratio: 0.989 ± 0.011

ACACAATCAT
switch fluorescence ratio: 1.02 ± 0.011

TTTTCTCTTT
switch fluorescence ratio: 1.01 ± 0.035

GCAAGATGGG
switch fluorescence ratio: 0.983 ± 0.015

GAGTTTTGGT
switch fluorescence ratio: 1.03 ± 0.019

AGATTTTTTG
switch fluorescence ratio: 0.9926 ± 0.0073

CAGCGCTGGA
switch fluorescence ratio: 0.996 ± 0.033

CGAAACAGCA
switch fluorescence ratio: 1.012 ± 0.0064

AATTCCTGGT
switch fluorescence ratio: 1.04 ± 0.023

ACTTCCGCGA
switch fluorescence ratio: 1.75 ± 0.11

ACACCCGGCC
switch fluorescence ratio: 1.28 ± 0.068

GCTCGGGGTC
switch fluorescence ratio: 0.978 ± 0.062

AAGTTGAGTT
switch fluorescence ratio: 1.007 ± 0.0017

TTAGTGGATT
switch fluorescence ratio: 0.9958 ± 0.0073

ACTCATTCGG
switch fluorescence ratio: 1.01 ± 0.015

AATTTGTTTC
switch fluorescence ratio: 0.972 ± 0.021

GGGGGGGTAG
switch fluorescence ratio: 1 ± 0.021

TATGTCACAA
switch fluorescence ratio: 1.03 ± 0.014

CCAGTTAGGA
switch fluorescence ratio: 1.01 ± 0.033

AAAAATTAAT
switch fluorescence ratio: 0.979 ± 0.023

AGGCTATCCC
switch fluorescence ratio: 0.992 ± 0.033

TTGGATGAAG
switch fluorescence ratio: 0.982 ± 0.022

CTCGCTGCGG
switch fluorescence ratio: 1.029 ± 0.0073

CCATCATAGA
switch fluorescence ratio: 0.9887 ± 0.0061

CAGGCTATTG
switch fluorescence ratio: 0.988 ± 0.023

TTCGTGTTAC
switch fluorescence ratio: 1.32 ± 0.26

TATAAATTGG
switch fluorescence ratio: 1 ± 0.032

GTGGGTGAC
switch fluorescence ratio: 0.977 ± 0.049

TTAAGCACCT
switch fluorescence ratio: 1.304 ± 0.013

GCTCCCAAGG
switch fluorescence ratio: 3.69 ± 0.46

AGGAGAGACC
switch fluorescence ratio: 0.9848 ± 0.0029

CTCTCAAGGG
switch fluorescence ratio: 1.088 ± 0.0077

GCATTAGTTT
switch fluorescence ratio: 1.04 ± 0.012

CGAGATGGTT
switch fluorescence ratio: 0.973 ± 0.025

GTCGGTACGG
switch fluorescence ratio: 1 ± 0.026

TCGTGGGGTA
switch fluorescence ratio: 0.9761 ± 0.007

TTGGGTCGGC
switch fluorescence ratio: 1.0032 ± 0.001

TTATCGTGCG
switch fluorescence ratio: 0.9661 ± 0.0079

TCGGACGGGC
switch fluorescence ratio: 1.26 ± 0.18

CAGTTTCCTC
switch fluorescence ratio: 1.08 ± 0.015

TTAGGAGGTG
switch fluorescence ratio: 1.08 ± 0.018

CTAAATATTG
switch fluorescence ratio: 0.989 ± 0.015

AATAACGAAG
switch fluorescence ratio: 1.04 ± 0.045

TTTGACGATT
switch fluorescence ratio: 1 ± 0.049

AAGAACTATA
switch fluorescence ratio: 1.09 ± 0.023

GTAGGAGGAG
switch fluorescence ratio: 0.991 ± 0.032

AATCAGATCG
switch fluorescence ratio: 0.962 ± 0.018

ATTCCGGGAG
switch fluorescence ratio: 1.07 ± 0.064

TCCACTGGAT
switch fluorescence ratio: 1.03 ± 0.013

GAGCTAGGAT
switch fluorescence ratio: 0.985 ± 0.018

CGCAAAGGGG
switch fluorescence ratio: 1.39 ± 0.29

GGGGAAGGT
switch fluorescence ratio: 1.04 ± 0.019

CCATTAGGGG
switch fluorescence ratio: 1.01 ± 0.044

CAGTATATTG
switch fluorescence ratio: 0.995 ± 0.025

CAAGTGTGAG
switch fluorescence ratio: 0.985 ± 0.013

CTAATTATGA
switch fluorescence ratio: 1.01 ± 0.048

GGAAGGGTAT
switch fluorescence ratio: 1 ± 0.03

GGGGTCCCAG
switch fluorescence ratio: 0.971 ± 0.03

CGGGGATTCG
switch fluorescence ratio: 0.996 ± 0.026

TTTATTTATA
switch fluorescence ratio: 1.01 ± 0.025

GAAGGGTTGG
switch fluorescence ratio: 0.999 ± 0.014

GTGGTTGGGT
switch fluorescence ratio: 0.979 ± 0.023

GTATGGTCGG
switch fluorescence ratio: 0.9991 ± 0.0074

AGGTTAACTA
switch fluorescence ratio: 1.02 ± 0.024

TGTCCGGGGG
switch fluorescence ratio: 0.994 ± 0.029

ATTGGGAAAA
switch fluorescence ratio: 1.03 ± 0.019

TCTGGGAGAA
switch fluorescence ratio: 0.992 ± 0.042

ATGGTGTCTT
switch fluorescence ratio: 0.961 ± 0.023

ATATAGGTA
switch fluorescence ratio: 1.036 ± 0.0097

GATGAAAAAT
switch fluorescence ratio: 0.975 ± 0.024

CGGTAGCGCC
switch fluorescence ratio: 0.99 ± 0.06

CAAGTTCAAA
switch fluorescence ratio: 1.013 ± 0.0055

TTTGATTGGA
switch fluorescence ratio: 1.02 ± 0.011

GAAGTATGCA
switch fluorescence ratio: 1.04 ± 0.031

TAGGAAGGGT
switch fluorescence ratio: 0.997 ± 0.028

TGATGTGCA
switch fluorescence ratio: 1.01 ± 0.17

AATTTGGACT
switch fluorescence ratio: 1.03 ± 0.027

GTTGAGAGGA
switch fluorescence ratio: 0.9636 ± 0.0018

GTTTGCGGCA
switch fluorescence ratio: 1.01 ± 0.027

GTCGGACATG
switch fluorescence ratio: 0.993 ± 0.073

GTTAGAAGGG
switch fluorescence ratio: 0.978 ± 0.023

CTGATTGGGC
switch fluorescence ratio: 1 ± 0.013

TTCATCGGCT
switch fluorescence ratio: 1.34 ± 0.51

CGTATGCCGA
switch fluorescence ratio: 0.961 ± 0.016

CACTAATTTT
switch fluorescence ratio: 1.03 ± 0.019

GTATTTCATA
switch fluorescence ratio: 1.01 ± 0.0031

ATAATTATCG
switch fluorescence ratio: 0.972 ± 0.046

TCATGACTTT
switch fluorescence ratio: 1.012 ± 0.0038

GGGGGAGTAC
switch fluorescence ratio: 1.025 ± 0.0084

TTAGAGTTGT
switch fluorescence ratio: 0.999 ± 0.034

TTTCCATAAG
switch fluorescence ratio: 1.007 ± 0.0022

TGAGAGCAGG
switch fluorescence ratio: 1.08 ± 0.025

— the supplement of paper PMC10126150
